Laboratory results published in article PMC3872242 (Journal of molecular biology, 2013).
Square brackets hold non-standard residues; d marks the D form. Ends that are not written are not given here. pS = N[C@@H](COP(=O)(O)O)C(=O)O

Target: T1, Human 14-3-3γ (human, UniProt P61981 2-247)
T1 sequence: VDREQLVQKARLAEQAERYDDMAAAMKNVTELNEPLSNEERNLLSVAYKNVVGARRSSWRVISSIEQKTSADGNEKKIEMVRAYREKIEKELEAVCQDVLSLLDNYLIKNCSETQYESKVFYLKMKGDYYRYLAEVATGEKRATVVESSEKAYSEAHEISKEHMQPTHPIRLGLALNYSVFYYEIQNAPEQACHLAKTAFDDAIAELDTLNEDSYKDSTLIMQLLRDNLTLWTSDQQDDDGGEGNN
Assay: crystal structure

binding result: binds
Binder: MPTPDATTPQAKGFRRAV[pS]ELDAKQAEAIMSPRFIGRRQSLIE [THp-(1-43), Ser19-phosphorylated N-terminal peptide of human tyrosine hydroxylase]
